By Kd is commonly meant the constant that tells how readily two partners part at equilibrium. Higher therefore signals a looser complex.

In PMC4222680 one finds Kd data, which are given here for one sequence.

Series [1] deals with TDG G199S G199S (human (rs4135113 variant)) (UniProt Q13569). The series is described as follows: EMSA. Particulars: tetrahydrofuran abasic analog (X, written N) at position 17 of strand 2, opposite A12 of strand 1; 20 mM HEPES pH 7.3, 1 mM EDTA, 10 mM (NH4)2SO4, 1 mM DTT, 0.2% Tween-20, 30 mM KCl; 2 nM DNA, 30 min at room temperature; 6% native PAGE at 4 C. For orientation: In EMSA bound probe runs differently from free probe, usually more slowly.

A further series has as its target TDG WT (human) (UniProt Q13569). The series is described as follows: EMSA. Particulars: tetrahydrofuran abasic analog (X, written N) at position 17 of strand 2, opposite A12 of strand 1; 20 mM HEPES pH 7.3, 1 mM EDTA, 10 mM (NH4)2SO4, 1 mM DTT, 0.2% Tween-20, 30 mM KCl; 2 nM DNA, 30 min at room temperature; 6% native PAGE at 4 C.

Chain of TDG G199S G199S (human (rs4135113 variant)) (Q13569 whole entry G199S): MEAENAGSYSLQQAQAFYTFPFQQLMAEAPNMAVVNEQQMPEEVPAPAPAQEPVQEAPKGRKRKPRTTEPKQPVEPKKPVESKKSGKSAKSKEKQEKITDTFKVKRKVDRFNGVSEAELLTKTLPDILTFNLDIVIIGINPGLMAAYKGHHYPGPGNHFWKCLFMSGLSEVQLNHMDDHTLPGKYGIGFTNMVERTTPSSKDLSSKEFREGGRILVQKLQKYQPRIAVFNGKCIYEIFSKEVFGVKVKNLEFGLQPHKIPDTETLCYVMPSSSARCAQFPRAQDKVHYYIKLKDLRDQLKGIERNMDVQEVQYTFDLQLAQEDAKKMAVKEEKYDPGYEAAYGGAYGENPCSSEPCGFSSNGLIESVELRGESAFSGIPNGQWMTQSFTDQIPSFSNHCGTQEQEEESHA
Chain of TDG WT (human) (Q13569 whole entry): as the sequence (Q13569 whole entry G199S) above, with S199G counted along it

Turning to “CAGCTCTGTACATGAGCAGTGGTGACAC / GTGTCACCACTGCTCANGTACAGAGCTG [28-mer THF:A]”, the Kd in series [1] was 35 nM; with TDG WT (human) it was 153 nM.
